Reference: PMC9746958

Molecular target: leptin receptor (OBR-2K), fused to luciferase (OBR-2K Rluc) or to YFP (OBR-2K YFP) (UniProt P48357)
Test: FRET or BRET; HEK293T cells co-transfected with OBR-2K Rluc (donor) and OBR-2K YFP (acceptor); pre-treated with homocysteine (1-10 mM) for 4 h, then leptin (10 nM) for 30 min; coelenterazine h 20 uM; result in mBRET units

Q: How did the fold increase in BRET signal upon leptin stimulation turn out when “leptin receptor (OBR-2K), fused to luciferase (OBR-2K Rluc) or to YFP (OBR-2K YFP) (from UniProt P48357 22-1165)” was run?
A: 3 fold
